Common to all, as to test: thermodynamic integration MD simulation (TIMD; computed, not an experimental measurement)
The target of experiment [1] is rat gephyrin E-domain (amino acids 318-736) D664N (other chain of the homodimer). The note with it: E-domain dimer; value per mutation point; read off a plot.
In experiment [2] the target is rat gephyrin E-domain (amino acids 318-736) G375D (other chain of the homodimer). The note with it: E-domain dimer; value per mutation point; read off a plot.
The target in experiment [3] is rat gephyrin E-domain (amino acids 318-736) G545A (other chain of the homodimer). The note with it: E-domain dimer; value per mutation point; read off a plot.
The target of experiment [4] is rat gephyrin E-domain (amino acids 318-736) G545S (other chain of the homodimer). The note with it: E-domain dimer; value per mutation point; read off a plot.
In experiment [5] the target is rat gephyrin G-domain (amino acids 1-188) A91T (other chains of the homotrimer). The note with it: G-domain trimer; value per mutation point; read off a plot.
The target in experiment [6] is rat gephyrin G-domain (amino acids 1-188) V43L (other chains of the homotrimer). The note with it: G-domain trimer; value per mutation point; read off a plot.

“rat gephyrin E-domain WT (amino acids 318-736) D664N” yielded a ddG in experiment [1] of -0.7 kcal/mol. In experiment [2], “rat gephyrin E-domain WT (amino acids 318-736) G375D” registered a ddG of 5.7 kcal/mol.

As for “rat gephyrin E-domain WT (amino acids 318-736) G545A”, the ddG in experiment [3] was 0.3 kcal/mol. In the case of “rat gephyrin E-domain WT (amino acids 318-736) G545S”, in experiment [4], the ddG is 0.2 kcal/mol. For the substance “rat gephyrin G-domain WT (amino acids 1-188) A91T”, the ddG in experiment [5] was 1.7 kcal/mol. As for “rat gephyrin G-domain WT (amino acids 1-188) V43L”, in experiment [6], the ddG was -0.95 kcal/mol.

Values taken from PMC7822942.
